The target in experiment [1] is human 4-1BB (human, UniProt Q07011). The experiment in a line: SPR, 25C.
The target of experiment [2] is T1, human ROR1 (human, UniProt Q01973). The experiment in a line: ELISA, stored 37C 2 weeks. Background: An ELISA detects its analyte on a solid surface through an enzyme-linked reagent.
Experiment [3] addresses T1, human ROR1. The experiment in a line: ELISA, stored 4C.
In experiment [4] the target is T1, human ROR1. The experiment in a line: ELISA, human serum 0 day.
For experiment [5], the target named is T1, human ROR1. The experiment in a line: ELISA, human serum 3 days.
Experiment [6] deals with T1, human ROR1. The experiment in a line: SPR, 25C, bivalent analyte. Background: SPR reads the build-up and loss of mass on a sensor chip optically.
The target in experiment [7] is T1, human ROR1. The experiment in a line: ELISA, monkey serum 7 days.
Experiment [8] has as its target T1, human ROR1. The experiment in a line: ELISA, monkey serum 0 day.
Experiment [9] deals with T1, human ROR1. The experiment in a line: ELISA, human serum 7 days.
Experiment [10] concerns the target T1, human ROR1. The experiment in a line: ELISA, monkey serum 3 days.
Experiment [11] deals with T1, human ROR1. The experiment in a line: ELISA, dual-antigen capture ROR1/4-1BB.
Experiment [12] has as its target T1, human ROR1. The experiment in a line: ELISA, human serum 14 days.
Experiment [13] deals with T1, human ROR1. The experiment in a line: ELISA, monkey serum 14 days.
Experiment [14] has as its target T1, human ROR1. The experiment in a line: ELISA, stored 40C 2 weeks.
Experiment [15] concerns the target T1, human ROR1. The experiment in a line: ELISA, stored 4C. This is another data set of the same source.
Experiment [16] concerns the target T1, human ROR1. The experiment in a line: ELISA, human serum 2 days.
Experiment [17] has as its target T1, human ROR1. The experiment in a line: ELISA, monkey serum 2 days.
The target of experiment [18] is T2, human B7-H3 (human, UniProt Q5ZPR3).
T2 chain: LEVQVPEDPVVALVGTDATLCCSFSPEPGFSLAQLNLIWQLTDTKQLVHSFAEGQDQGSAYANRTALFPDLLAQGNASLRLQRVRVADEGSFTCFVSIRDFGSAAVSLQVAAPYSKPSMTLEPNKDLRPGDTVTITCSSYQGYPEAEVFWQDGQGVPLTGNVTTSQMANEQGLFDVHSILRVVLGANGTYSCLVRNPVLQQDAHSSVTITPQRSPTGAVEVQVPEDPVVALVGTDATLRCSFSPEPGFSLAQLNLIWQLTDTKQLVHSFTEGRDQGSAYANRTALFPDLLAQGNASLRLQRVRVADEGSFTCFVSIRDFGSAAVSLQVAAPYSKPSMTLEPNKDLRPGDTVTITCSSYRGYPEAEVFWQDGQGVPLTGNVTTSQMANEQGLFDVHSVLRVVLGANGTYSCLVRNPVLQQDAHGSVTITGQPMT
The experiment in a line: ELISA, stored 4C.

Experiment [19] addresses T2, human B7-H3. The experiment in a line: ELISA, stored 40C 2 weeks.

T1 sequence (Q01973 30-403): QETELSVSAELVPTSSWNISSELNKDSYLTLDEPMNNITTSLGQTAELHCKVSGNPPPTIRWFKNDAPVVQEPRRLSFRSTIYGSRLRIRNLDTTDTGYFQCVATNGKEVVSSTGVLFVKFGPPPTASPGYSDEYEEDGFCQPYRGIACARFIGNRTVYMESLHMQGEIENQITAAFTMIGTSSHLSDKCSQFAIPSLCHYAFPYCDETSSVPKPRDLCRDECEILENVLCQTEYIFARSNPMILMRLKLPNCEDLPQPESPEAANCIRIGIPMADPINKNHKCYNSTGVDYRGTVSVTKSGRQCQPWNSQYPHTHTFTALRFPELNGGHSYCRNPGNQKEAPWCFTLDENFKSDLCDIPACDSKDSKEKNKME
Chain of human 4-1BB (Q07011 24-186): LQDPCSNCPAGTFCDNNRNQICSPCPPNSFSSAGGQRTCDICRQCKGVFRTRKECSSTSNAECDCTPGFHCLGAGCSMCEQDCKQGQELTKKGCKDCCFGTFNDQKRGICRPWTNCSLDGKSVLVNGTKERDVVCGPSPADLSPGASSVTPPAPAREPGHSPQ

B1: BA6M11(WT)x1A10M12 4-1BB arm (antibody, V domains shown)
VH: EVQLLESGGGLVQPGGSLRLSCAASGFTFSSYDMSWVRQAPGKCLEWVSWISYSGGSIYYADSVKGRFTISRDNSKNTLYLQMNSLRAEDTAVYYCARDAQRNSMREFDYWGQGTLVTVSS
VL: QSVLTQPPSASGTPGQRVTISCSGSSSNIGNNYVTWYQQLPGTAPKLLIYADSHRPSGVPDRFSGSKSGTSASLAISGLRSEDEADYYCATWDYSLSGYVFGCGTKLTVL
B1 showed a Kd in [1] of 4.53 nM.

B2: BA6M11(NA)x1A10M12 4-1BB arm (antibody, V domains shown)
VH: EVQLLESGGGLVQPGGSLRLSCAASGFTFSSYDMSWVRQAPGKCLEWVSWISYSGGSIYYADSVKGRFTISRDNSKNTLYLQMNSLRAEDTAVYYCARDAQRNSMREFDYWGQGTLVTVSS
VL: QSVLTQPPSASGTPGQRVTISCSGSSSNIGNNYVTWYQQLPGTAPKLLIYADSHRPSGVPDRFSGSKSGTSASLAISGLRSEDEADYYCATWDYSLSGYVFGCGTKLTVL
B2 gave a Kd in experiment [1] of 4.5 nM.

B3: BA6M11 IgG (antibody, V domains shown)
VH: EVQLLESGGGLVQPGGSLRLSCAASGFTFSNYDMSWVRQAPGKGLEWVSAIYHSGSSKYYADSVKGRFTISRDNSKNTLYLQMNSLRAEDTAVYYCARGGSGAWDTGFDYWGQGTLVTVSS
VL: QSVLTQPPSASGTPGQRVTISCSGSSSNIGSNDVSWYQQLPGTAPKLLIYYENNRPSGVPDRFSGSKSGTSASLAISGLRSEDEADYYCGAWDDSLSGYVFGGGTKLTVL
One may read the EC50 as the concentration that produces a half-maximal response. Take B3: the results for the EC50 in [2] and in experiment [3] were 0.129 nM and 0.166 nM, respectively.

B4: BA6M11(NA)x1A10M12 ROR1 arm (antibody, V domains shown)
VH: EVQLLESGGGLVQPGGSLRLSCAASGFTFSNYDMSWVRQAPGKGLEWVSAIYHSGSSKYYADSVKGRFTISRDNSKNTLYLQMNSLRAEDTAVYYCARGGSGAWDTGFDYWGQGTLVTVSS
VL: QSVLTQPPSASGTPGQRVTISCSGSSSNIGSNDVSWYQQLPGTAPKLLIYYENNRPSGVPDRFSGSKSGTSASLAISGLRSEDEADYYCGAWDDSLSGYVFGGGTKLTVL
For the molecule B4, the EC50 in [4] came to 0.211 nM; in experiment [5], 0.22 nM; in [7] it was 0.257 nM; in [8], 0.208 nM; in [9], 0.236 nM; in [10], 0.238 nM. The results for the EC50 in experiment [11], in experiment [12] and in experiment [13] were 0.268 nM, 0.233 nM and 0.273 nM, respectively. For the same molecule, in experiment [6], the Kd worked out at 6.65 nM.

B5: BA6xB5 ROR1 arm (antibody, V domains shown)
VH: EVQLLESGGGLVQPGGSLRLSCAASGFTFSNYDMSWVRQAPGKGLEWVSAIYHSGSSKYYADSVKGRFTISRDNSKNTLYLQMNSLRAEDTAVYYCARGGNGAWDTGFDYWGQGTLVTVSS
VL: QSVLTQPPSASGTPGQRVTISCSGSSSNIGSNDVSWYQQLPGTAPKLLIYYDNNRPSGVPDRFSGSKSGTSASLAISGLRSEDEADYYCGAWDDSLSGYVFGGGTKLTVL
Take B5: the EC50 was 0.18 nM in experiment [14] and 0.141 nM in [15].

B6: BA6M11xB5 ROR1 arm (antibody, V domains shown)
VH: EVQLLESGGGLVQPGGSLRLSCAASGFTFSNYDMSWVRQAPGKGLEWVSAIYHSGSSKYYADSVKGRFTISRDNSKNTLYLQMNSLRAEDTAVYYCARGGSGAWDTGFDYWGQGTLVTVSS
VL: QSVLTQPPSASGTPGQRVTISCSGSSSNIGSNDVSWYQQLPGTAPKLLIYYENNRPSGVPDRFSGSKSGTSASLAISGLRSEDEADYYCGAWDDSLSGYVFGGGTKLTVL
Take B6: the EC50 in experiment [14] worked out at 0.134 nM; in experiment [15], 0.152 nM.

B7: BA6x1A10M12 ROR1 arm (antibody, V domains shown)
VH: EVQLLESGGGLVQPGGSLRLSCAASGFTFSNYDMSWVRQAPGKGLEWVSAIYHSGSSKYYADSVKGRFTISRDNSKNTLYLQMNSLRAEDTAVYYCARGGNGAWDTGFDYWGQGTLVTVSS
VL: QSVLTQPPSASGTPGQRVTISCSGSSSNIGSNDVSWYQQLPGTAPKLLIYYDNNRPSGVPDRFSGSKSGTSASLAISGLRSEDEADYYCGAWDDSLSGYVFGGGTKLTVL
Take B7: the concentration giving a half-maximal response (EC50) in experiment [4] is 0.228 nM; in [7], 0.427 nM; in experiment [8], 0.24 nM; in [9] it was 0.42 nM; in experiment [11], 0.386 nM; in experiment [12], 0.457 nM. For the same molecule, the EC50 in [13] was determined as 0.419 nM; in [16], 0.365 nM; in [17] it was 0.36 nM.

B8: BA6M11xB5 B7-H3 arm (antibody, V domains shown)
VH: EVQLLESGGGLVQPGGSLRLSCAASGFTFSDYAMSWVRQAPGKCLEWVSSISSGSGSIYYADSVKGRFTISRDNSKNTLYLQMNSLRAEDTAVYYCAKNLIPLDYWGQGTLVTVSS
VL: QSVLTQPPSASGTPGQRVTISCSGSSSNIGSNAVSWYQQLPGTAPKLLIYYNSHRPSGVPDRFSGSKSGTSASLAISGLRSEDEADYYCGSWDASLNAYVFGCGTKLTVL
As to B8, the EC50 in experiment [18] was 0.232 nM; in experiment [19], 0.19 nM.

B9: BA6M11(WT)x1A10M12 ROR1 arm (antibody, V domains shown)
VH: EVQLLESGGGLVQPGGSLRLSCAASGFTFSNYDMSWVRQAPGKGLEWVSAIYHSGSSKYYADSVKGRFTISRDNSKNTLYLQMNSLRAEDTAVYYCARGGSGAWDTGFDYWGQGTLVTVSS
VL: QSVLTQPPSASGTPGQRVTISCSGSSSNIGSNDVSWYQQLPGTAPKLLIYYENNRPSGVPDRFSGSKSGTSASLAISGLRSEDEADYYCGAWDDSLSGYVFGGGTKLTVL
Molecule B9 displayed a Kd in [6] of 6.05 nM.

B10: BA6xB5 B7-H3 arm (antibody, V domains shown)
VH: EVQLLESGGGLVQPGGSLRLSCAASGFTFSDYAMSWVRQAPGKCLEWVSSISSGSGSIYYADSVKGRFTISRDNSKNTLYLQMNSLRAEDTAVYYCAKNLIPLDYWGQGTLVTVSS
VL: QSVLTQPPSASGTPGQRVTISCSGSSSNIGSNAVSWYQQLPGTAPKLLIYYNSHRPSGVPDRFSGSKSGTSASLAISGLRSEDEADYYCGSWDASLNAYVFGCGTKLTVL
Take B10: the EC50 in experiment [18] is 0.173 nM; in [19] it was 0.186 nM.

B11: BA6 IgG (WT) (antibody, V domains shown)
VH: EVQLLESGGGLVQPGGSLRLSCAASGFTFSNYDMSWVRQAPGKGLEWVSAIYHSGSSKYYADSVKGRFTISRDNSKNTLYLQMNSLRAEDTAVYYCARGGNGAWDTGFDYWGQGTLVTVSS
VL: QSVLTQPPSASGTPGQRVTISCSGSSSNIGSNDVSWYQQLPGTAPKLLIYYDNNRPSGVPDRFSGSKSGTSASLAISGLRSEDEADYYCGAWDDSLSGYVFGGGTKLTVL
Regarding B11, the values for the EC50 in [2] and in [3] were 0.261 nM and 0.217 nM, respectively.
